Measurements reported in patent US20220242973A1 (Molecular Partners, published 2022).
Numbering of substitutions follows the chain as printed. Read-outs that look alike come from different tables or passages of the source.

T1: Recombinant human FAP (fibroblast activation protein) (human, UniProt Q12884 26-760)
T1 construct: Bought soluble recombinant protein; Chemically biotinylated for the HTRF screen; also called hFAP; biotinylated human FAP
T1 sequence (looked up): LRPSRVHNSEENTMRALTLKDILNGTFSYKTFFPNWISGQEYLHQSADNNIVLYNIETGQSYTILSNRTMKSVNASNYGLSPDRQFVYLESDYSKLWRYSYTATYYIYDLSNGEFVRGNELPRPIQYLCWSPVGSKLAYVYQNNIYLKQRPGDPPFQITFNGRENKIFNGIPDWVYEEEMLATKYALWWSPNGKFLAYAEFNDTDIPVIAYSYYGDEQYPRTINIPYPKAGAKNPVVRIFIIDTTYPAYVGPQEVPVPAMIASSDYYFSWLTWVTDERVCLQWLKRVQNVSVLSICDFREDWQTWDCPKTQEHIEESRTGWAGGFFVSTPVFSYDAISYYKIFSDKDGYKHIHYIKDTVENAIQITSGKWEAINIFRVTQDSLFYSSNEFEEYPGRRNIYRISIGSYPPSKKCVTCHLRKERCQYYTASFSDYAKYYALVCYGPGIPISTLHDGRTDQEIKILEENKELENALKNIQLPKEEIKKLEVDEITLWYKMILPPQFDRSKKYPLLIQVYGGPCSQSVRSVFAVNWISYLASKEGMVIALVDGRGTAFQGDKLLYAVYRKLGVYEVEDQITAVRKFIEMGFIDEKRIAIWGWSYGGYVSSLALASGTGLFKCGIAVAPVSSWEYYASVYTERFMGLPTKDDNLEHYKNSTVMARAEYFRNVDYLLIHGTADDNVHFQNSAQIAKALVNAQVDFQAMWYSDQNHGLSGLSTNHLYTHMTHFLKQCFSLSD

T2: Histidine-tagged cynomolgus FAP (cynomolgus monkey (Macaca fascicularis), UniProt Q12884 30-760 (human entry))
T2 construct: the tie between the two is by these matching words only; also called cFAP; cyno FAP
T2 sequence: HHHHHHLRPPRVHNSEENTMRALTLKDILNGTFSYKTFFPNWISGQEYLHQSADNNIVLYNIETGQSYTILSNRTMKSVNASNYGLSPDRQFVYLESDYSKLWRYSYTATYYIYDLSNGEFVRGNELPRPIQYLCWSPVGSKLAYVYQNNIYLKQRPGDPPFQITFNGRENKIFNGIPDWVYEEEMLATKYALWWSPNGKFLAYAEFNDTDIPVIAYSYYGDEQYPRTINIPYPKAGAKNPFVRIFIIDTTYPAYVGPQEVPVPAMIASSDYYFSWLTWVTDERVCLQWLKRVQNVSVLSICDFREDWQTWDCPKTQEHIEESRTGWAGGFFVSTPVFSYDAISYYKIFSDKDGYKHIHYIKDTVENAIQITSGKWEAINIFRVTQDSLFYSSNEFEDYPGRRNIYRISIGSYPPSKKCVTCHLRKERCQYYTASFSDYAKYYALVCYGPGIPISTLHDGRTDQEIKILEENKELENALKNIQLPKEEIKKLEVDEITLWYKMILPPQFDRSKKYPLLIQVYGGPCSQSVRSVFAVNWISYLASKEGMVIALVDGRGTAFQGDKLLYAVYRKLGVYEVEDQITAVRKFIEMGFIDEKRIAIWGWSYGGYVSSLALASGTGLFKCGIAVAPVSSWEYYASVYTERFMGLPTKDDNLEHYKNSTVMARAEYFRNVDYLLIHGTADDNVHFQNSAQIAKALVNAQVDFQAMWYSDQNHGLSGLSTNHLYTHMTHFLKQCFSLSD

B1: DARPin® protein #39 (designed binder)
chain: MRGSHHHHHHGSDLGKKLLEAARAGQDDEVRELLKAGADVNAKDEWGKTPLHLAAIRGHLEIVEVLLKAGADVNAKDTHGITPLHLAAFVGHLEIVEVLLKAGADVNAKDYLGRTPLHIAAAKGHLEIVEVLLKAGADVNAQDKSGKTPADLAADAGHEDIVEVLQKLN
B2: DARPin® protein #35 (designed binder)
chain: MRGSHHHHHHGSDLGEKLLVAALYGQDDEVRELLKAGADVNAKDQWGLTPLHKAALQGHLEIVEVLLKAGADVNAKDERGHTPLHWAARFGHLEIVEVLLKAGADVNAQDQKGYTPADLAALWGHEDIAEVLQKAA
B3: DARPin® protein #37 (designed binder)
chain: B2 chain with E32I, K35A, A135L, A136N
B4: DARPin® protein #34 (designed binder)
chain: MRGSHHHHHHGSDLGKKLLEAARAGQDDEVRELLKAGADVNAKDVLGWTPLHLAAFEGHLEIVEVLLKAGADVNAKDKKGWTPLQLAARTGHLEIVEVLLKAGADVNAKDHIGATPLHLAAWQGHPEIVEVLLKAGADVNAQDKSGKTPADLAADAGHEDIAEVLQKAA
B5: DARPin® protein #36 (designed binder)
chain: B4 chain with E32I, K35A, A168L, A169N
B6: DARPin® protein #38 (designed binder)
chain: MRGSHHHHHHGSDLGKKLLEAARAGQDDEVRELLKAGADVNAKDEVGRTPLHLAAQIGHLEIVEVLLKAGADVNAKNRWGVTPLHVAAWVGHLEIVEVLLKAGADVNAKDQQGATPLHLAAIRGHLEIVEVLLKAGADVNAQDKSGKTPADLAADAGHEDIAEVLQKLN

Experiments:
[1] = molecular target: T1, Recombinant human FAP (fibroblast …); assay: SPR (ProteOn), human FAP immobilized on GLC chip
Experimental: (§1) Briefly, human FAP was diluted in 10 mM Na-acetate pH 5.3 buffer and covalently immobilized on a GLC chip (BioRad) to a level of around 2000 resonance units (RU). The interaction of ankyrin repeat protein and hFAP was then measured by injecting 200 μl running buffer (PBS, pH 7.4 containing 0.005% Tween 20®) containing serial dilutions of ankyrin repeat proteins covering a concentration range between 30 nM and 0.5 nM (on-rate measurement), followed by a running buffer flow for at least 25 minutes at a constant flow rate of 100 μl/min (off-rate measurement). The regeneration was performed using 15 μl of 10 mM Glycine pH 2 followed by 15 μl of 124 mM H₃PO₄. The signals (i.e. resonance unit (RU) values) of the interspots and a reference injection (i.e. injection of running buffer only) were subtracted from the RU traces obtained after injection of ankyrin repeat protein (double-referencing). Based on the SPR traces obtained from the on-rate and off-rate measurements, the on- and off-rate of the corresponding ankyrin repeat protein—FAP interaction was determined.
(§2) Dissociation constants (KD) were calculated from the estimated on- and off-rates using standard procedures known to the person skilled in the art. […] Table 4 provides the KD values on cFAP and hFAP of some of the selected ankyrin repeat proteins as examples.

[2] = molecular target: T1, Recombinant human FAP (fibroblast …); assay: SPR (ProteOn), human FAP immobilized on GLC chip; remark: listed apart in the source
In short: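 Human FAP amine-coupled (pH 5.3 acetate) to about 2000 RU. Ankyrin repeat proteins injected at 0.5–30 nM in PBS pH 7.4 with 0.005% Tween 20 at 100 μl/min, then ≥25 min dissociation, with double referencing. KD calculated from the fitted on- and off-rates.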

[3] = molecular target: T2, Histidine-tagged cynomolgus FAP; assay: SPR (ProteOn), cynomolgus FAP immobilized on GLC chip
Experimental: as §1, with “cyno” for “human”, “pH5.3” for “pH 5.3”, “cFAP” for “hFAP”, “25” for “30”, “0.3” for “0.5”
as §2

Kd [1] | Kd [2] | Kd [3] | Binder
0.22 nM | 0.22 nM | 0.155 nM | B1
0.21 nM | 0.21 nM | 0.15 nM | B2
0.14 nM | 0.14 nM | 0.112 nM | B3
0.177 nM | 0.177 nM | 0.071 nM | B4
0.118 nM | 0.118 nM | 0.101 nM | B5
0.058 nM | 0.058 nM | 0.047 nM | B6
